Results published in the supplement of paper PMC7877785.
± gives the uncertainty stated by the source.

Experiment: self-splicing fitness, log relative to wild type (ln ratio); higher = more splicing; Tetrahymena group I intron in knt gene, E. coli kanamycin selection, DiMSum; sequences stand for … in CUCUCU…GGAGGGAAAAGUUAUCAGGCAUGCACCUGGUAGCUAGUCUUUAAACCAAUAGAUUGCAUCGGUUUAAAAGGCAAGACCGUCAAAUUGCGGGAAAGGGGUCAACAGCCGUUCAGUACCAAGUCUCAGGGGAAACUUUGAGAUGGCCUUGCAAAGGGUAUGGUAAUAAGCUGACGGACAUGGUCCUAACCACGCAGCCAAGUCCUAAGUCAACAGAUCUUCUGUUGAUAUGGAUGCAGUUCACAGACUAAAUGUCGGUCGGGGAAGAUGUAUUCUUCUCAUAAGAUAUAGUCGGACCUCUCCUUAAUGGGAGCUAGCGGAUGAAGUGAUGCAACACUGGAGCCGCUGGGAACUAAUUUGUAUGCGAAAGUAUAUUGAUUAGUUUUGGAGUACUCGUGGUCG
In short: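 Six replicate transformations of E. coli BL21(DE3) with a pET-22b(+) library were grown overnight at 37°C or 30°C. The library randomised all eight P1ex-region intron nucleotides, the intron lying in the knt kanamycin-resistance gene, and plates were LB agar with or without 25 μg/mL kanamycin plus 100 μg/mL carbenicillin, 50 μM IPTG and 0.2% rhamnose. Pooled colonies were amplicon-sequenced on an Illumina HiSeq 2500, and fitness is the DiMSum error-weighted combination of wild-type-normalised replicate fold changes, kanamycin versus none.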

Sequence	self-splicing fitness (ln) (30 °C)	self-splicing fitness (ln) (37 °C)
CACGAGCAAUAUUACGUGGG	-4.45 ± 0.29	-2.71 ± 0.18
CACUAGCAAUAUUACGAAAA	-3.29 ± 0.33	-1.87 ± 0.26
CACUAGCAAUAUUACGAAGA	-3.05 ± 0.24	-2.27 ± 0.2
CACUAGCAAUAUUACGAGAA	-2.74 ± 0.43	-1.67 ± 0.28
CACUAGCAAUAUUACGAGAG	-3.21 ± 0.2	-1.73 ± 0.14
CACUAGCAAUAUUACGCAAG	-2.39 ± 0.098	-1.43 ± 0.12
CACUAGCAAUAUUACGCGAA	-2.72 ± 0.19	-2.74 ± 0.2
CACUAGCAAUAUUACGCGCG	-1.1 ± 0.11	-0.054 ± 0.14
CACUAGCAAUAUUACGCGUU	-2.86 ± 0.13	-0.877 ± 0.11
CACUAGCAAUAUUACGCUAA	-3.33 ± 0.3	-1.75 ± 0.19
CACUAGCAAUAUUACGCUUG	-2.03 ± 0.16	-0.991 ± 0.13
CACUAGCAAUAUUACGGCAU	-4.16 ± 0.19	-1.55 ± 0.14
CACUAGCAAUAUUACGGCGA	-2.43 ± 0.16	-1.61 ± 0.2
CACUAGCAAUAUUACGGCGG	-0.21 ± 0.079	-0.0455 ± 0.092
CACUAGCAAUAUUACGGCUC	-2.9 ± 0.17	-1.79 ± 0.3
CACUAGCAAUAUUACGGCUU	-3.4 ± 0.24	-1.91 ± 0.21
CACUAGCAAUAUUACGGUCG	-0.198 ± 0.072	0.007 ± 0.085
CACUAGCAAUAUUACGGUUC	-2.4 ± 0.12	-1.45 ± 0.16
CACUAGCAAUAUUACGGUUU	-1.56 ± 0.077	-0.979 ± 0.093
CACUAGCAAUAUUACGUACA	-2.35 ± 0.21	-1.29 ± 0.4
CACUAGCAAUAUUACGUAGA	-3.01 ± 0.089	-1.81 ± 0.096
CACUAGCAAUAUUACGUCUG	-0.516 ± 0.058	0.214 ± 0.074
CACUAGCAAUAUUACGUGUG	-3.71 ± 0.14	-2.82 ± 0.16
CACUAGCAAUAUUACGUUGC	-2.61 ± 0.22	-1.58 ± 0.21
CACUAGCAAUAUUACGUUUG	-2.29 ± 0.079	-1.42 ± 0.11
CAGAAGCAAUAUUACGAAUU	-3.5 ± 0.2	-2.05 ± 0.27

Sequence	self-splicing fitness (ln) (30 °C)	self-splicing fitness (ln) (37 °C)
CAGAAGCAAUAUUACGACGG	-0.126 ± 0.079	0.104 ± 0.1
CAGAAGCAAUAUUACGAGUG	-1.63 ± 0.067	-0.988 ± 0.091
CAGAAGCAAUAUUACGAGUU	-3.32 ± 0.34	-2.47 ± 0.3
CAGAAGCAAUAUUACGCAUA	-3.68 ± 0.24	-2.02 ± 0.18
CAGAAGCAAUAUUACGCCUG	-2.25 ± 0.23	-3.94 ± 0.39
CAGAAGCAAUAUUACGCGGG	-2.43 ± 0.2	-2.74 ± 0.27
CAGAAGCAAUAUUACGCGGU	-3.61 ± 0.12	-2.34 ± 0.14
CAGAAGCAAUAUUACGCUGU	-4.53 ± 0.37	-2.83 ± 0.21
CAGAAGCAAUAUUACGCUUA	-3.85 ± 0.32	-1.9 ± 0.18
CAGAAGCAAUAUUACGGCGC	-3.28 ± 0.32	-1.6 ± 0.31
CAGAAGCAAUAUUACGUAUG	-4.42 ± 0.16	-2.56 ± 0.13
CAGAAGCAAUAUUACGUGGU	-3.58 ± 0.17	-1.86 ± 0.16
CAGAAGCAAUAUUACGUUAA	-3.62 ± 0.27	-3.02 ± 0.43
CAGAAGCAAUAUUACGUUGC	-4.27 ± 0.26	-2.74 ± 0.25
CAGCAGCAAUAUUACGAAAA	-2.36 ± 0.2	-2.26 ± 0.28
CAGCAGCAAUAUUACGAAAG	-0.597 ± 0.09	-0.18 ± 0.12
CAGCAGCAAUAUUACGAAAU	-3.94 ± 0.25	-2.97 ± 0.27
CAGCAGCAAUAUUACGAACA	-2.72 ± 0.38	-2.17 ± 0.32
CAGCAGCAAUAUUACGACGA	-1.68 ± 0.13	-0.501 ± 0.096
CAGCAGCAAUAUUACGACGC	–	-1.5 ± 0.45
CAGCAGCAAUAUUACGAGAG	-2.38 ± 0.083	-1.81 ± 0.089
CAGCAGCAAUAUUACGAGAU	-2.65 ± 0.24	-1.71 ± 0.2
CAGCAGCAAUAUUACGAUAG	-0.297 ± 0.063	-0.0435 ± 0.077
CAGCAGCAAUAUUACGAUAU	-3.29 ± 0.24	-2.3 ± 0.19
CAGCAGCAAUAUUACGAUCA	-2.71 ± 0.2	-1.88 ± 0.21
CAGCAGCAAUAUUACGAUCU	-3.54 ± 0.35	-2.38 ± 0.19

Sequence	self-splicing fitness (ln) (30 °C)	self-splicing fitness (ln) (37 °C)
CAGCAGCAAUAUUACGCGCA	-0.471 ± 0.13	-0.346 ± 0.16
CAGCAGCAAUAUUACGCUCU	-3.08 ± 0.16	-2.08 ± 0.17
CAGCAGCAAUAUUACGCUUA	-1.51 ± 0.13	-0.645 ± 0.12
CAGCAGCAAUAUUACGGACA	-2.86 ± 0.17	-2.28 ± 0.17
CAGCAGCAAUAUUACGGCCA	-0.605 ± 0.091	-0.22 ± 0.11
CAGCAGCAAUAUUACGGGGA	-1.98 ± 0.18	-2.22 ± 0.19
CAGCAGCAAUAUUACGGGGU	-3.28 ± 0.15	-2.57 ± 0.16
CAGCAGCAAUAUUACGGGUG	-1.35 ± 0.082	-0.904 ± 0.085
CAGCAGCAAUAUUACGGUCC	-3.63 ± 0.22	-1.63 ± 0.2
CAGCAGCAAUAUUACGUAUC	-3.6 ± 0.19	-2.13 ± 0.13
CAGCAGCAAUAUUACGUCAC	-1.69 ± 0.24	-2.75 ± 0.28
CAGCAGCAAUAUUACGUCCC	-2.38 ± 0.47	–
CAGCAGCAAUAUUACGUCCU	-2.31 ± 0.17	-0.614 ± 0.14
CAGCAGCAAUAUUACGUCUA	-0.137 ± 0.045	0.377 ± 0.06
CAGCAGCAAUAUUACGUCUC	-1.15 ± 0.064	-0.898 ± 0.075
CAGCAGCAAUAUUACGUGCA	-1.03 ± 0.061	-0.673 ± 0.066
CAGCAGCAAUAUUACGUGCU	-3.3 ± 0.13	-1.94 ± 0.12
CAGCAGCAAUAUUACGUGUA	-2.97 ± 0.078	-1.65 ± 0.072
CAGCAGCAAUAUUACGUUUC	-3.76 ± 0.17	-2.53 ± 0.2
CAGGAGCAAUAUUACGAAAU	-2.55 ± 0.33	–
CAGGAGCAAUAUUACGAACC	–	-1.07 ± 0.24
CAGGAGCAAUAUUACGACUG	–	-2.83 ± 0.38
CAGGAGCAAUAUUACGAGAG	-1.92 ± 0.15	-1.67 ± 0.17
CAGGAGCAAUAUUACGAUAU	-1.88 ± 0.17	-2.37 ± 0.35
CAGGAGCAAUAUUACGAUGC	–	-2.83 ± 0.26
